Experiments:
BChE = biological target: T1, BChE (Mus musculus, UniProt Q03311, A228S/A357W/S256A/S316G/Y361G); assay: Selective BChE inhibition by iso-OMPA in vector-treated mice; assay type: in vivo; details: AAV-mBChE mut mice, iso-OMPA 40 mg kg^-1, 6 hours fast
T1 construct: expressed in transfected cells; host or cells: C57bl/6 mice after AAV-mBChE mut gene transfer; activity measured in serum/plasma
Method: FIGS. 6A-6B. […] All mice were then fasted for 6 hours, and serum samples were collected to determine (6A) BChE activity versus the reference substrate (BTCh) and (6B) the levels of acyl ghrelin.

human ghrelin = assay: In vitro enzyme screening: ghrelin hydrolyzing activity of purified mutant BChE (ghrelin immunoassay); assay type: biochemical; details: purified enzyme from HEK293 supernatant
human acyl-ghrelin = assay: Deacylation of human acyl ghrelin by purified human BChE; assay type: biochemical
Method: FIGS. 3A-3D. […] (3B) One ng of human acyl-ghrelin was treated with different amount of human BChE. After 20 hours of incubation, residual acyl ghrelin and desacyl ghrelin in each reaction were determined. (3C) One ng of human acyl ghrelin was treated with 10 µg of human BChE and % decrease in residual acyl ghrelin was measured as a function of time. […] The hydrolysis activities with butyrylthiocholine (BTCh) or acyl-ghrelin as substrates were determined by Ellman assay and acyl-ghrelin immunoassay, respectively. Data are normalized to the no inhibitor controls. All values are means ± SD, each with duplicate samples (n=3).
A sample of purified human BChE was obtained from Dr. O. Lockridge and assessed by gel electrophoresis (FIG. 3A).

[1] = 1 ng human acyl-ghrelin, increasing amounts of human BChE, 20 hours

Question: With `CC(C)NP(=O)(NC(C)C)OP(=O)(NC(C)C)NC(C)C` [iso-OMPA] as the molecule, how does the “BTCh hydrolysis activity of plasma” value (BChE) read?
Answer: abolished

Question: What about the “level of acyl ghrelin in plasma” value (BChE) of the same molecule?
Answer: equivalent to the level observed in AAV-Luc-treated control mice

B1: A199S/F227A/S287G/A328W/Y332G (protein)
chain: EDDIIIATKNGKVRGMNLTVFGGTVTAFLGIPYAQPPLGRLRFKKPQSLTKWSDIWNATKYANSCCQNIDQSFPGFHGSEMWNPNTDLSEDCLYLNVWIPAPKPKNATVLIWIYGGGFQTGTSSLHVYDGKFLARVERVIVVSMNYRVGALGFLALPGNPEAPGNMGLFDQQLALQWVQKNIAAFGGNPKSVTLFGESSGAASVSLHLLSPGSHSLFTRAILQSGSANAPWAVTSLYEARNRTLNLAKLTGCSRENETEIIKCLRNKDPQEILLNEAFVVPYGTPLGVNFGPTVDGDFLTDMPDILLELGQFKKTQILVGVNKDEGTWFLVGGAPGFSKDNNSIITRKEFQEGLKIFFPGVSEFGKESILFHYTDWVDDQRPENYREALGDVVGDYNFICPALEFTKKFSEWGNNAFFYYFEHRSSKLPWPEWMGVMHGYEIEFVFGLPLERRDNYTKAEEILSRSIVKRWANFAKYGNPNETQNNSTSWPVFKSTEQKYLTLNTESTRIMTKLRAQQCRFWTSFFPKVLEMTGNIDEAEWEWKAGFHRWNNYMMDWKNQFNDYTSKKESCVGL
Question: B1 was tested. Which “ghrelin hydrolyzing activity in vitro” value (human ghrelin) did it give?
Answer: modest activity, comparable to that of wild type human BChE

B2: A199S/S227A/S287G/A328W/Y332G (protein)
chain: EEDFIITTKTGRVRGLSMPVLGGTVTAFLGIPYAQPPLGSLRFKKPQPLNKWPDIHNATQYANSCYQNIDQAFPGFQGSEMWNPNTNLSEDCLYLNVWIPVPKPKNATVMVWIYGGGFQTGTSSLPVYDGKFLARVERVIVVSMNYRVGALGFLAFPGNPDAPGNMGLFDQQLALQWVQRNIAAFGGNPKSITIFGESSGAASVSLHLLCPQSYPLFTRAILESGSANAPWAVKHPEEARNRTLTLAKFTGCSKENEMEMIKCLRSKDPQEILRNERFVLPSDSILGINFGPTVDGDFLTDMPHTLLQLGKVKKAQILVGVNKDEGTWFLVGGAPGFSKDNDSLITRKEFQEGLNMYFPGVSRLGKEAVLFYYVDWLGEQSPEVYRDALDDVIGDYNIICPALEFTKKFAELENNAFFYFFEHRSSKLPWPEWMGVMHGYEIEFVFGLPLGRRVNYTRAEEIFSRSIMKTWANFAKYGHPNGTQGNSTMWPVFTSTEQKYLTLNTEKSKIYSKLRAPQCQFWRLFFPKVLEMTGDIDETEQEWKAGFHRWSNYMMDWQNQFNDYTSKKESCTAL
Question: What does the source list for B2?
Answer: ghrelin hydrolyzing activity in vitro (human ghrelin): enhanced activity; ghrelin hydrolyzing activity relative to wild type mouse BChE (human ghrelin): at least 20 fold

B3: human BChE (protein, listed as Homo sapiens)
chain: MHSKVTIICIRFLFWFLLLCMLIGKSHTEDDIIIATKNGKVRGMNLTVFGGTVTAFLGIPYAQPPLGRLRFKKPQSLTKWSDIWNATKYANSCCQNIDQSFPGFHGSEMWNPNTDLSEDCLYLNVWIPAPKPKNATVLIWIYGGGFQTGTSSLHVYDGKFLARVERVIVVSMNYRVGALGFLALPGNPEAPGNMGLFDQQLALQWVQKNIAAFGGNPKSVTLFGESAGAASVSLHLLSPGSHSLFTRAILQSGSFNAPWAVTSLYEARNRTLNLAKLTGCSRENETEIIKCLRNKDPQEILLNEAFVVPYGTPLSVNFGPTVDGDFLTDMPDILLELGQFKKTQILVGVNKDEGTAFLVYGAPGFSKDNNSIITRKEFQEGLKIFFPGVSEFGKESILFHYTDWVDDQRPENYREALGDVVGDYNFICPALEFTKKFSEWGNNAFFYYFEHRSSKLPWPEWMGVMHGYEIEFVFGLPLERRDNYTKAEEILSRSIVKRWANFAKYGNPNETQNNSTSWPVFKSTEQKYLTLNTESTRIMTKLRAQQCRFWTSFFPKVLEMTGNIDEAEWEWKAGFHRWNNYMMDWKNQFNDYTSKKESCVGL
Question: Which results are given for B3?
Answer: acyl ghrelin hydrolysis rate as a function of time (human acyl-ghrelin; 1 ng human acyl ghrelin, 10 µg human BChE): linear hydrolysis rate; amount of acyl ghrelin (human acyl-ghrelin; [1]): decrease in the amount of acyl ghrelin; amount of desacyl ghrelin (human acyl-ghrelin; [1]): increase in the amount of the breakdown product, desacyl ghrelin

Reference: patent publication US20230193226A1, “BUTYRYLCHOLI[…] AN ENHANCED ABILITY TO HYDROLYZE ACYL GHRELIN” (priority 2014, published 2023)
